In article PMC11607471, “E3 Ubiquitin Ligase Ring Finger Protein 2 Alleviates Cerebral Ischemia–Reperfusion Injury by Stabilizing Mesencephalic Astrocyte‐Derived Neurotrophic Factor Through Monoubiquitination” (CNS Neuroscience & Therapeutics, 2024):

Molecular target: T1, GST-RNF2 (human, UniProt Q99496 1-336)
T1 construct: RNF2; also called recombinant GST-tagged human RNF2; source: Escherichia coli BL-21, immobilized on glutathione-Sepharose beads
T1 sequence (looked up): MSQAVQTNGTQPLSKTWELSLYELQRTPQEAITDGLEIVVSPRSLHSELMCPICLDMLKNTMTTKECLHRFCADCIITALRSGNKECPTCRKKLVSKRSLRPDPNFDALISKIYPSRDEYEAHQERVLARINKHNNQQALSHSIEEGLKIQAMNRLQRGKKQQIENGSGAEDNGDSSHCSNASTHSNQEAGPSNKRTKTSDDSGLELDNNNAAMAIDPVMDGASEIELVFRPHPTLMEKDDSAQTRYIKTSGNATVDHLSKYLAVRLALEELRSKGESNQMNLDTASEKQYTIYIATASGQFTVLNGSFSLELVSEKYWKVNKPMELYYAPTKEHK
Experiment: pull-down; GST-RNF2 immobilized on glutathione-Sepharose beads incubated with recombinant His-MANF; blot with anti-MANF
Conditions: both partners purified

binding result: binds
B1: His-tagged human MANF (natural protein, UniProt P55145 25-182, looked up)
chain: LRPGDCEVCISYLGRFYQDLKDRDVTFSPATIENELIKFCREARGKENRLCYYIGATDDAATKIINEVSKPLAHHIPVEKICEKLKKKDSQICELKYDKQIDLSTVDLKKLRVKELKKILDDWGETCKGCAEKSDYIRKINELMPKYAPKAASARTDL
notes: human MANF; also called His-MANF; recombinant His-MANF; source: Escherichia coli BL-21, purified (Ni-NTA agarose)
